Test results: article PMC7659713 (The Journal of Cell Biology, 2020)

Target: the molecule itself
Experiment: native gel or EMSA

B1: FLAG-Pex14p(156–376)SD (domain or fragment, rat, UniProt Q642G4 156-376, looked up)
chain: SGSVAQTVTQVQTTLASVQELLRQQQQKVQELAHELAAAKATTSTNWILESQNINELKSEINSLKGLLLNRRQFPPDPSAPKIPSWQIPVKSPSPSSPAAVNHHSSSDISPVSNESPSSSPGKDGHSPEGSTATYRLLGPQEEGEGVVDVKGQVRMEVQGEEEKREDEEGEEDEDDDVSHVDEEDVLGVQREDRRGGDGQINEQVEKLRRPEGASNESERD
- fold formation of homo-oligomer against WT or SA mutant: ~1.5 fold
